Source: patent US7115382B1, “Method for detecting IGFBP-4 protease without detecting IGFBP-4 protease/proMBP Complex” (Mayo Foundation for Medical Education and Research, priority 1999, dated 2006)
Each block holds one molecule with its values, some of them ahead of it.

What was measured:
[1] = target: insulin-like growth factor binding protein-4 ([125I]IGFBP-4) (human) (UniProt P22692); assay: cell-based or functional assay
[2] = target: T1, IGFBP-4 protease activity in follicular fluid (Homo sapiens, UniProt Q13219); assay: IGFBP-4 proteolysis in IVF follicular fluid, cell-free [125I]IGFBP-4 assay; assay type: biochemical; conditions: for Effect on IGFBP-4 protease activity in IVF follicular fluid: added to the assay during 6 h incubation; for % Inhibition of IGFBP-4 proteolysis, FF: follicular fluid 10 μl, [125I]IGFBP-4, 6 h 37°C, EDTA 5 mM, 1,10 phenantholine 5 mM, PMSF 10 mM, Pefabloc 1 mM, TIMP-1 5 μg/ml
T1 construct: Follicular fluid was obtained at the time of follicle aspiration for in vitro fertilization (IVF) procedures; from tissue; host or cells: IVF follicular fluid
Description: PAPP-A Activity. […] For some experiments, PAPP-A polyclonal antibody or nonspecific rabbit IgG was added to the assay mixture or was used in conjunction with protein G plus protein A-agarose (Oncogene Science) to immunoprecipitate IGFBP-4 protease activity before assay.
(§1) For some experiments, protease inhibitors (see Table 2) or PAPP-A polyclonal antibody were added to the assay mixture during the 6 h incubation. In others, PAPP-A antibody or nonspecific rabbit IgG was used in conjunction with Protein G-plus/Protein-A-agarose (Oncogene Science) to immunoprecipitate IGFBP-4 protease activity and the sample supernatants were then used in the protease assay.

IGFBP-4 = IGFBP-4 cleavage by PAPP-A forms (rPAPP-A, PAPP-A/proMBP, column fractions); assay type: biochemical, human; conditions: for Amount required to obtain the same degree of IGFBP-4 cleavage: initial experiment, purified proteins; for IGF-dependent IGFBP-4 protease activity: with and without IGF-II
Description: (§2) PAPP-A Activity. IGFBP-4 proteolysis was assayed by incubating the sample overnight at 37° C. with 2 mM CaC2/50 mM Tris (pH 7.5)/10,000 cpm of [^125I]IGFBP-4 in the absence and presence of 5 nM IGF-II in a total volume of 25 μl. Proteins were separated by reducing 15% SDS/PAGE and visualized by autoradiography. For some experiments, PAPP-A polyclonal antibody or nonspecific rabbit IgG was added to the assay mixture or was used in conjunction with protein G plus protein A-agarose (Oncogene Science) to immunoprecipitate IGFBP-4 protease activity before assay.
(§3) Measurement of PAPP-A Proteolytic Activity: IGFBP-4 proteolysis was assayed as described in Example 1. The activity of the PAPP-A/proMBP complex was compared to the activity of rPAPP-A in two parallel time course experiments scaled up to larger reaction volumes: Equal amounts of sample A (pool of pregnancy serum diluted to 7 μg/ml of PAPP-A/proMBP as determined by ELISA calibrated with purified PAPP-A/proMBP) and sample B (as sample A, but rPAPP-A supernatant added to 7 μg/ml as determined by ELISA calibrated with purified rPAPP-A) were incubated with [^125I]IGFBP-4 in the presence of 5 nM IGF-II. […] The experiment with sample A was also carried out in the presence of polyclonal anti(PAPP-A/proMBP). A similar time course experiment was performed for comparison of PAPP-A activity in selected column fractions.

rPAPP-A = target: T2, rPAPP-A (Homo sapiens, UniProt Q13219); assay: Activity of recombinant PAPP-A against IGFBP-4; assay type: biochemical; conditions: in presence of IGF
T2 construct: because the mature rPAPP-A is antigenic, functional, and secreted abundantly into the culture medium; made in house; host or cells: human embryonic kidney 293T cells, pcDNA3.1-PAPP-A; culture supernatant or purified
T2 sequence (Q13219 with tags, fused parts or gaps): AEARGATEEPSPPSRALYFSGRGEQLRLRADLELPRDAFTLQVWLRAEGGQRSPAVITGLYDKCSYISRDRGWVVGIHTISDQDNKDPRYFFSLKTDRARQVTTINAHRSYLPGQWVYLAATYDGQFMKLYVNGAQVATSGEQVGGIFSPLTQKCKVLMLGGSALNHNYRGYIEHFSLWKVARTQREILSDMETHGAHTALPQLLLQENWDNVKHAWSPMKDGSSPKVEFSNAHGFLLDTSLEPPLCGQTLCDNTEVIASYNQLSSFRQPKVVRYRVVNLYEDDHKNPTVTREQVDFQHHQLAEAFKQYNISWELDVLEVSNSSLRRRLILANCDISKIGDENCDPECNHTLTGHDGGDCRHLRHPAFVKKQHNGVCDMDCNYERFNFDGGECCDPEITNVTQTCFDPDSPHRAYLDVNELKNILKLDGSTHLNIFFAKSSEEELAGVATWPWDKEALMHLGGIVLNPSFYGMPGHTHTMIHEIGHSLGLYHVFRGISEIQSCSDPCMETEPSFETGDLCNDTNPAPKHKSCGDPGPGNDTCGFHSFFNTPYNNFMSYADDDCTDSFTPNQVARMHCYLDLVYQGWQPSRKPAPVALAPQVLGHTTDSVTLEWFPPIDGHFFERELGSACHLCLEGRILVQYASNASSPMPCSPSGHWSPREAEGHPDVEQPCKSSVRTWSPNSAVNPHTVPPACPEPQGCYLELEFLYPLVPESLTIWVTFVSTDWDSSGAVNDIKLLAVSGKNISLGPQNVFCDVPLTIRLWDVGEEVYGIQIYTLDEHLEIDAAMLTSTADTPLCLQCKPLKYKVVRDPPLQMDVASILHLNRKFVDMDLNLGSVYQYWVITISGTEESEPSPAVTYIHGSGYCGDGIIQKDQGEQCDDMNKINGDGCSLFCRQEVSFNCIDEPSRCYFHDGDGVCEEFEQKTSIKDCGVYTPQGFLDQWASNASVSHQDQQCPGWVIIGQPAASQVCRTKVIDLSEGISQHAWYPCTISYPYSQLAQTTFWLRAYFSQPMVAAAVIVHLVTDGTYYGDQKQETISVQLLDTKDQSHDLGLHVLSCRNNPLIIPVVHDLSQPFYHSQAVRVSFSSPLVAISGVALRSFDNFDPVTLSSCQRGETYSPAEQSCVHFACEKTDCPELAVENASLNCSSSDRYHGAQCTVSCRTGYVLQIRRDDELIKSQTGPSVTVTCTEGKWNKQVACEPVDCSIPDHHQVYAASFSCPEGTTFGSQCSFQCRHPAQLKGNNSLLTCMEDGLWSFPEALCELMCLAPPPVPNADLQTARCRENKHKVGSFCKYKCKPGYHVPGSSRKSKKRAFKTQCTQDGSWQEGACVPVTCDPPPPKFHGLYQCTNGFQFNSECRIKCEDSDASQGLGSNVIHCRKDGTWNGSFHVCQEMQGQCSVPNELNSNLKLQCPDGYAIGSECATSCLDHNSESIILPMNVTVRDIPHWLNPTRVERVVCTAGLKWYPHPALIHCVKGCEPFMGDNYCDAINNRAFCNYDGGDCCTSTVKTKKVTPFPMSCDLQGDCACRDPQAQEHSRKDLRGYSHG
Description: as §2, §3

PAPP-A = target: T3, PAPP-A (Homo sapiens, UniProt Q13219); assay: IGFBP-4 proteolysis by PAPP-A purified from pregnancy serum, [125I]IGFBP-4 assay; assay type: biochemical; conditions: PAPP-A purified from pregnancy serum 500 ng, EDTA 5 mM, 1,10 phenantholine 5 mM, PMSF 10 mM, TIMP-1 5 μg/ml
T3 construct: a pro-part of 58 residues, and an 1547-residue circulating mature polypeptide; from tissue; host or cells: human term pregnancy serum
Description: as §2
IGFBP-4 proteolysis was assayed as described in Example 1, by incubating sample at 37° C. for 6 h with [^125I]IGFBP-4. Reaction products were separated by nonreducing 7.5–15% gradient SDS-PAGE, and visualized by autoradiography.
as §1

[3] = target: T4, insulin-like growth factor binding protein-4 ([125I]IGFBP-4) (UniProt P22692)
T4 sequence: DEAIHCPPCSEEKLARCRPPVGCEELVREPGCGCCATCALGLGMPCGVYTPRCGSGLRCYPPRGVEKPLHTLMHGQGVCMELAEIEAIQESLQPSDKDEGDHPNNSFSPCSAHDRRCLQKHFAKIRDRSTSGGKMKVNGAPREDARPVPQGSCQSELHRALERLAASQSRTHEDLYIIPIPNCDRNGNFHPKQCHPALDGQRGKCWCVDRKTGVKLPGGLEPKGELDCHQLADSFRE

[4] = target: PAPP-A (IGFBP-4 protease) in IVF follicular fluid (human) (UniProt Q13219); assay: cell-based or functional assay
[5] = target: PAPP-A/proMBP complex purified from pregnancy serum (human) (UniProt Q13219); assay: cell-based or functional assay
[6] = target: PAPP-A present in pregnancy serum (human, UniProt Q13219 82-1627); assay: cell-based or functional assay
[7] = target: T5, insulin-like growth factor binding protein-4 ([125I]IGFBP-4), P22692
T5 chain: T4 sequence

human granulosa cells = conditions: Iwashita et al. 1996; cited from earlier work

- amount required for the same degree of IGFBP-4 cleavage [1]: 50 ng
Molecule: PAPP-A/proMBP complex purified from pregnancy serum (from UniProt Q13219 82-1627; P13727 17-222)

Molecule: Cl.NCCc1ccc(S(=O)(=O)F)cc1 [Pefabloc]
- Effect on IGFBP-4 protease activity in IVF follicular fluid [2]: not
- % Inhibition of IGFBP-4 proteolysis, FF [2]: 15%

Molecule: rPAPP-A: recombinant PAPP-A expressed in mammalian cells, secreted as a homodimer of about 400 kDa devoid of proMBP
- Amount required to obtain the same degree of IGFBP-4 cleavage (IGFBP-4): 0.1 ng
- Difference in specific activity, rPAPP-A versus PAPP-A in pregnancy serum (IGFBP-4; time course, 7 μg/ml each, 5 nM IGF-II): about 100 fold
- IGF-dependent IGFBP-4 protease activity (IGFBP-4): cleaves IGFBP-4 in an IGF dependent manner

- Effect on IGFBP-4 protease activity in IVF follicular fluid [2]: completely suppressed
- Inhibition of rPAPP-A activity against IGFBP-4 (rPAPP-A): inhibited
Molecule: O=C(O)CN(CCN(CC(=O)O)CC(=O)O)CC(=O)O [EDTA]

Molecule: PAPP-A/proMBP: approximately 500 kDa disulfide-linked 2:2 complex of PAPP-A and proMBP purified from pregnancy serum
- Amount required to obtain the same degree of IGFBP-4 cleavage (IGFBP-4): approximately 50 ng
- IGF-dependent IGFBP-4 protease activity (IGFBP-4): exhibited IGF-dependent IGFBP-4 protease activity

- % Inhibition of IGFBP-4 proteolysis, FF [2]: 0%
- Inhibition of rPAPP-A activity against IGFBP-4 (rPAPP-A): not
Molecule: TIMP-1: a broad spectrum inhibitor of matrix metalloproteinases
- Effect on IGFBP-4 protease activity in IVF follicular fluid [2]: had no effect
- % Inhibition of IGFBP-4 proteolysis, PAPP-A (PAPP-A): 0%

Molecule: O=S(=O)(F)Cc1ccccc1 [PMSF]
- Effect on IGFBP-4 protease activity in IVF follicular fluid [2]: not
- % Inhibition of IGFBP-4 proteolysis, FF [2]: 0%
- % Inhibition of IGFBP-4 proteolysis, PAPP-A (PAPP-A): 20%

Molecule: recombinant PAPP-A (rPAPP-A)
- amount required for the same degree of IGFBP-4 cleavage [3]: approximately 50 ng of PAPP-A/proMBP complex purified from pregnancy serum was required to obtain the same degree of IGFBP-4 cleavage as 0.1 ng of rPAPP-A
- cleavage of IGFBP-4 [3]: IGFBP-4 was cleaved in the presence, but not in the absence of IGF

- % Inhibition of IGFBP-4 proteolysis (TIMP-1, 5 ug/ml) [4]: 0%
- % Inhibition of IGFBP-4 proteolysis (TIMP-1, 5 ug/ml) [5]: 0%
Molecule: TIMP-1 (from UniProt P01033 24-207)

Molecule: uncomplexed PAPP-A: PAPP-A antigen eluting around fraction 24 of pregnancy serum, uncomplexed PAPP-A dimer
- Specific activity against IGFBP-4, early versus late eluting Mono Q peak of pregnancy serum (IGFBP-4; fraction 24 versus fraction 43): greater than 25 fold

- Effect on IGFBP-4 protease activity in IVF follicular fluid [2]: completely suppressed
- % Inhibition of IGFBP-4 proteolysis, FF [2]: 100%
- % Inhibition of IGFBP-4 proteolysis, PAPP-A (PAPP-A): 100%
- Inhibition of rPAPP-A activity against IGFBP-4 (rPAPP-A): inhibited
Molecule: c1cnc2c(c1)ccc1cccnc12 [1,10 phenantholine, 1,10-phenanthroline]

- difference in specific activity between PAPP-A in pregnancy serum and rPAPP-A [6]: ~100 fold
- specific activity against IGFBP-4 of the early (uncomplexed) against the late (PAPP-A/proMBP) Mono Q peak [6]: > 25 fold
B1: proform of eosinophil major basic protein (proMBP) (other, human, UniProt P13727 17-222, looked up)
chain: LHLRSETSTFETPLGAKTLPEDEETPEQEMEETPCRELEEEEEWGSGSEDASKKDGAVESISVPDMVDKNLTCPEEEDTVKVVGIPGCQTCRYLLVRSLQTFSQAWFTCRRCYRGNLVSIHNFNINYRIQCSVSALNQGQVWIGGRITGSGRCRRFQWVDGSRWNFAYWAAHQPWSRGGHCVALCTRGGHWRRAHCLRRLPFICSY

B2: PAPP-A (IGFBP-4 protease) in IVF follicular fluid (protein)
chain: EARGATEEPSPPSRALYFSGRGEQLRLRADLELPRDAFTLQVWLRAEGGQRSPAVITGLYDKCSYISRDRGWVVGIHTISDQDNKDPRYFFSLKTDRARQVTTINAHRSYLPGQWVYLAATYDGQFMKLYVNGAQVATSGEQVGGIFSPLTQKCKVLMLGGSALNHNYRGYIEHFSLWKVARTQREILSDMETHGAHTALPQLLLQENWDNVKHAWSPMKDGSSPKVEFSNAHGFLLDTSLEPPLCGQTLCDNTEVIASYNQLSSFRQPKVVRYRVVNLYEDDHKNPTVTREQVDFQHHQLAEAFKQYNISWELDVLEVSNSSLRRRLILANCDISKIGDENCDPECNHTLTGHDGGDCRHLRHPAFVKKQHNGVCDMDCNYERFNFDGGECCDPEITNVTQTCFDPDSPHRAYLDVNELKNILKLDGSTHLNIFFAKSSEEELAGVATWPWDKEALMHLGGIVLNPSFYGMPGHTHTMIHEIGHSLGLYHVFRGISEIQSCSDPCMETEPSFETGDLCNDTNPAPKHKSCGDPGPGNDTCGFHSFFNTPYNNFMSYADDDCTDSFTPNQVARMHCYLDLVYQGWQPSRKPAPVALAPQVLGHTTDSVTLEWFPPIDGHFFERELGSACHLCLEGRILVQYASNASSPMPCSPSGHWSPREAEGHPDVEQPCKSSVRTWSPNSAVNPHTVPPACPEPQGCYLELEFLYPLVPESLTIWVTFVSTDWDSSGAVNDIKLLAVSGKNISLGPQNVFCDVPLTIRLWDVGEEVYGIQIYTLDEHLEIDAAMLTSTADTPLCLQCKPLKYKVVRDPPLQMDVASILHLNRKFVDMDLNLGSVYQYWVITISGTEESEPSPAVTYIHGSGYCGDGIIQKDQGEQCDDMNKINGDGCSLFCRQEVSFNCIDEPSRCYFHDGDGVCEEFEQKTSIKDCGVYTPQGFLDQWASNASVSHQDQQCPGWVIIGQPAASQVCRTKVIDLSEGISQHAWYPCTISYPYSQLAQTTFWLRAYFSQPMVAAAVIVHLVTDGTYYGDQKQETISVQLLDTKDQSHDLGLHVLSCRNNPLIIPVVHDLSQPFYHSQAVRVSFSSPLVAISGVALRSFDNFDPVTLSSCQRGETYSPAEQSCVHFACEKTDCPELAVENASLNCSSSDRYHGAQCTVSCRTGYVLQIRRDDELIKSQTGPSVTVTCTEGKWNKQVACEPVDCSIPDHHQVYAASFSCPEGTTFGSQCSFQCRHPAQLKGNNSLLTCMEDGLWSFPEALCELMCLAPPPVPNADLQTARCRENKHKVGSFCKYKCKPGYHVPGSSRKSKKRAFKTQCTQDGSWQEGACVPVTCDPPPPKFHGLYQCTNGFQFNSECRIKCEDSDASQGLGSNVIHCRKDGTWNGSFHVCQEMQGQCSVPNELNSNLKLQCPDGYAIGSECATSCLDHNSESIILPMNVTVRDIPHWLNPTRVERVVCTAGLKWYPHPALIHCVKGCEPFMGDNYCDAINNRAFCNYDGGDCCTSTVKTKKVTPFPMSCDLQGDCACRDPQAQEHSRKDLRGYSHG
- proteolysis of [125I]IGFBP-4 [7]: Incubation of IVF follicular fluid with [125I]IGFBP-4 resulted in the loss of intact IGFBP-4 ... and the generation of radiolabeled fragments of 18- and 14-kDa

B3: intact IGFBP4: intact insulin-like growth factor binding protein 4 (protein)
chain: T4 sequence
- Effect on IGF-stimulated estradiol production (human granulosa cells): inhibited
